Results published in patent publication US20210361740A1.

Columns and labels:
[1] = target: cMyc-tagged C-terminal TLR2 (cTLR2) recombinant protein, C-terminal TIR domain of TLR2 (640-784 amino acids) (UniProt Q9QUN7); experiment: SPR, cTLR2 immobilised; reference mTIDM
[2] = target: cMyc-tagged C-terminal TLR2 (cTLR2) recombinant protein, C-terminal TIR domain of TLR2 (640-784 amino acids) (UniProt Q9QUN7); experiment: thermal shift assay of cTLR2 with wtTIDM peptide
[3] = target: cMyc-tagged C-terminal TLR2 (cTLR2) recombinant protein, C-terminal TIR domain of TLR2 (640-784 amino acids) (UniProt Q9QUN7); experiment: SPR, cTLR2 immobilised, peptide as analyte; equilibrium response versus peptide concentration; wtTIDM peptide
[4] = target: cMyc-tagged C-terminal TLR2 (cTLR2) recombinant protein, C-terminal TIR domain of TLR2 (640-784 amino acids) (UniProt Q9QUN7); experiment: thermal shift assay of cTLR2 with mTIDM peptide
[5] = target: cMyc-tagged C-terminal TLR2 (cTLR2) recombinant protein, C-terminal TIR domain of TLR2 (640-784 amino acids) (UniProt Q9QUN7); experiment: SPR, cTLR2 immobilised, peptide as analyte; equilibrium response versus peptide concentration; mTIDM (mutated) peptide

Sequence of cMyc-tagged C-terminal TLR2 (cTLR2) recombinant protein, C-terminal TIR domain of TLR2 (640-784 amino acids) (Q9QUN7 640-784 limits assumed, form in doubt): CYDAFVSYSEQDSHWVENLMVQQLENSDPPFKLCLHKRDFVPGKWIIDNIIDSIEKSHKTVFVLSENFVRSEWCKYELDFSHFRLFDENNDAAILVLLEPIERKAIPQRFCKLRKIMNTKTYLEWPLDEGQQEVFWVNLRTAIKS

fold stronger affinity than mTIDM [1] | ΔTm (shift of melting temperature) [2] | Kd [3] | ΔTm (shift of melting temperature) [4] | Kd [5] | Binder
2.5 fold | 4.96 ° C. | 8 µM | – | – | DRQIKIWFQNRRMKWKKPGAHQK [Wild type (wt) TIDM peptide (TLR2-interacting domain of MyD88 joined to Antennapedia homeodomain)]
– | – | – | 0.87 ° C. | 19 µM | DRQIKIWFQNRRMKWKKPGWHQD [Mutated (m) TIDM peptide]
